Four molecules from US20140099308A1 (IMMUNOGEN, published 2014) can be followed below.

Experiment [1] concerns the target T1, human EGFR (human, UniProt P00533 25-1210). The experiment can be described thus: flow cytometry competition on A431 cells; competitor: 10 nM biotinylated TGFα. A general note: A flow cytometer gives signals particle by particle.
The target of experiment [2] is T1, human EGFR. The experiment can be described thus: cell-based or functional assay.
The target in experiment [3] is T1, human EGFR. Kind of experiment: cell-based or functional assay. The source holds these as a separate data set.
Experiment [4] deals with T1, human EGFR. The experiment can be described thus: cell-based or functional assay. The source holds these as a separate data set.
In experiment [5] the target is T2, huEGFR-Fc (human; murine, UniProt P00533 25-645).
T2 construct: extracellular domain; also called human EGFR ECD Fc fusion; wild type human EGFR; not shown: murine IgG2A hinge, CH2, and CH3 region (pmuFc2ANL vector)
The experiment can be described thus: ELISA on the EGFR ECD-Fc construct (A450).

The target in experiment [6] is T3, huEGFRdIII-Fc (human; murine, UniProt P00533 334-525).
T3 construct: range 310-501; Residue numbers count on the mature receptor, not on the precursor; also called human EGFR domain III; not shown: murine IgG2A hinge, CH2, and CH3 region
Kind of experiment: ELISA on the EGFR ECD-Fc construct (A450). Background: An ELISA detects its analyte on a solid surface through an enzyme-linked reagent.

Experiment [7] addresses T4, chEGFRdIII-Fc (murine; human, UniProt Q01279 334-483; P00533 484-505; Q01279 506-525).
T4 construct: range 310-459;range 460-481;range 482-501; the split into three pieces follows from that; also called human/murine EGFR chimera; not shown: murine IgG2A hinge, CH2, and CH3 region
The experiment can be described thus: ELISA on the EGFR ECD-Fc construct (A450).

Experiment [8] has as its target T1, human EGFR. Kind of experiment: flow cytometry competition on MDA-MB468 cells; competed: 0.2 nM biotinylated cetuximab; streptavidin-Alexa 488 detection.
Experimental: (§1) To distinguish binding epitopes of anti-EGFR antibodies, antibody binding competition assays were done using flow cytometry. […] In brief, the biotinylated antibody was pre-mixed with varying concentration of ‘competing’ antibodies. The antibody mixture was then incubated with cells on ice for 2h. […] After washing, the cells were fixed and analyzed in FACScalibur. The geometric mean fluorescence intensity was plotted against antibody concentration in semi-log plot and normalized so that 100% represents the maximal binding of the biotinylated antibody in absence of other antibody and 0% represents the background staining in absence of the biotinylated antibody.
In experiment [9] the target is T1, human EGFR. The experiment can be described thus: flow cytometry competition on MDA-MB468 cells; competed: 0.3 nM biotinylated 528 antibody; streptavidin-Alexa 488 detection.
Experimental: as §1
Experiment [10] concerns the target T2, huEGFR-Fc. The experiment can be described thus: ELISA on the EGFR ECD-Fc construct (A450). This is another data set of the same source.
Experiment [11] has as its target T3, huEGFRdIII-Fc. The experiment can be described thus: ELISA on the EGFR ECD-Fc construct (A450). This is another data set of the same source.
The target in experiment [12] is T5, muEGFRdIII-Fc (murine, UniProt Q01279 334-525).
T5 construct: range 310-501; Residue numbers count on the mature receptor, not on the precursor; also called murine EGFR domain III; not shown: murine IgG2A hinge, CH2, and CH3 region
Kind of experiment: ELISA on the EGFR ECD-Fc construct (A450).

Experiment [13] deals with T4, chEGFRdIII-Fc. The experiment can be described thus: ELISA on the EGFR ECD-Fc construct (A450). The source holds these as a separate data set.
The target in experiment [14] is T1, human EGFR. The experiment can be described thus: flow cytometry competition on A431 cells; competitor: 1.8 nM biotinylated EGF.
Experimental: To examine if the EGFR antibodies inhibit the ligand binding to the EGFR, the binding of biotinylated EGFR ligand to the A431 cells was measured by flow cytometry in the presence of anti-EGFR antibodies. […] Prior to competition assay, the binding curve of the biotinylated ligands was established. […] Cells were then washed twice with FACS buffer and incubated with streptavidin-APC conjugate (Jackson Immunoresearch) for 15 min on ice. Cells were washed twice with FACS buffer and analyzed in FACS Calibur (BD Bioscience) using FlowJo program (Tree Star). The geometric mean fluorescence intensities were plotted against the antibody concentration in a semi-log plot.
The target in experiment [15] is T2, huEGFR-Fc. Kind of experiment: ELISA on the EGFR ECD-Fc construct (A450). This is another data set of the same source.
Experiment [16] addresses T3, huEGFRdIII-Fc. Kind of experiment: ELISA on the EGFR ECD-Fc construct (A450). The source holds these as a separate data set.
Experiment [17] concerns the target T5, muEGFRdIII-Fc. Kind of experiment: ELISA on the EGFR ECD-Fc construct (A450). The source holds these as a separate data set.
Experiment [18] addresses T4, chEGFRdIII-Fc. The experiment can be described thus: ELISA on the EGFR ECD-Fc construct (A450). This is another data set of the same source.

Substitutions are numbered along the chain they refer to. Where two headings read alike, the source gives them in different places.

In general, EC50 refers to the concentration needed to bring the measured effect to its halfway point. On to TGFα (ligand), for which the EC50 with human EGFR [1] is 1.34 nM.

B1: muEGFR-7 antibody (antibody, V domains shown)
VH: QVQLQQSGAELARPGASVKLSCKASGYTFTSYWMQWVKQRPGQGLECIGTIYPGDGDTTYTQKFKGKATLTADKSSSTAYMQLSSLASEDSAVYYCARYDAPGYAMDYWGQGTSVTVSS
VL: DIQMTQSPSSLSASLGGKVTITCKASQDINNYLAWYQHKPGKGPRLLIHYTSTLHPGIPSRFSGSGSGRDYSFSISNLEPEDIATYYCLQYDNLLYTFGGGTKLEIKR
notes: Murine hybridoma antibody (ATCC PTA-11332)
On to B1, for which the “EC50 (nM), anti-proliferative activity in HCC827 cells” value (“EC50 (nM) … in HCC827 cells” below) in the experiment with human EGFR [2] worked out at 0.03 nM. In addition, in the experiment with human EGFR [2], the “Maximal inhibition (%), HCC827 cells” value turned out to be 72%. Also, the “EC50 (nM), anti-proliferative activity in NCI-H292 cells” value in the experiment with human EGFR [3] turned out to be 0.4 nM; in the experiment with human EGFR [4], 0.21 nM. Moreover, the EC50 with huEGFR-Fc [5] was determined as 0.0328 nM; in the experiment with huEGFRdIII-Fc [6], 0.043 nM; with chEGFRdIII-Fc [7] it was 0.294 nM. In addition, the “IC50 (read off the curve)” value with human EGFR [8] and with human EGFR [9] was about 2 nM each time.

B2: muEGFR-12 antibody (antibody, V domains shown)
VH: B1 VH with A9T, T59R, T61I
VL: DVQITQSPSYLAASPGETITINCRASKSISKYLAWYQEKPGKTNKLLIYSGSTLQSGIPSRFSGSGSGTDFTLTISSLEPEDFAMYYCQQHNEYPWTFGGGTKLEIK
notes: Murine hybridoma antibody (ATCC PTA-11333)
As to B2, in the experiment with human EGFR [2], the “EC50 (nM) … in HCC827 cells” value came to 0.7 nM. The “Maximal inhibition (%), HCC827 cells” value with human EGFR [2] worked out at 63%. Besides, the EC50 amounted to 0.0485 nM with huEGFR-Fc [10]; 0.0572 nM with huEGFRdIII-Fc [11]; 1.24 nM with chEGFRdIII-Fc [13]; 2.93 nM in the experiment with human EGFR [14]; 1.34 nM in the experiment with human EGFR [1]. Besides, in the experiment with muEGFRdIII-Fc [12], the binding result is on record as “no binding (tested: 10^-7 M)”. Also, the “IC50 (read off the curve)” value with human EGFR [8] and with human EGFR [9] was about 2 nM each time.

B3: muEGFR-6 antibody (antibody, V domains shown)
VH: B1 VH with T50A, I51L, T58A, T59R, K74R, S118A
VL: B1 VL with L33I
notes: Murine hybridoma antibody (ATCC PTA-11331)
Take B3: the “EC50 (nM) … in HCC827 cells” value in the experiment with human EGFR [2] was found to be 0.3 nM. In addition, in the experiment with human EGFR [2], the “Maximal inhibition (%), HCC827 cells” value was determined as 72%. The “EC50 (nM), anti-proliferative activity in NCI-H292 cells” value with human EGFR [3] came to 5.6 nM; with human EGFR [4], 2.59 nM. In addition, the EC50 in the experiment with huEGFR-Fc [15] worked out at 0.0484 nM; in the experiment with huEGFRdIII-Fc [16], 0.0694 nM; with chEGFRdIII-Fc [18] it was 0.867 nM; with human EGFR [14], 2.55 nM; with human EGFR [1] it was 1.18 nM. Moreover, the binding result with muEGFRdIII-Fc [17] was “no binding (tested: 10^-7 M)”. The “IC50 (read off the curve)” value in the experiment with human EGFR [8] and with human EGFR [9] was about 2 nM throughout.
